{"source": "patent US20050153310A1", "about": "(PROMEGA, published 2005)", "binders": {"B1": {"name": "FRB (rapamycin binding protein) (other)", "chain": "ILWHEMWHEGLEEASRLYFGERNVKGMFEVLEPLHAMMERGPQTLKETSFNQAYGRDLMEAQEWCRKYMKSGNVKDLTQAWDLYYHVFRRISK"}}, "target": "FKBP (FK506 binding protein) (UniProt P62942 2-108)", "sequence (P62942 2-108)": "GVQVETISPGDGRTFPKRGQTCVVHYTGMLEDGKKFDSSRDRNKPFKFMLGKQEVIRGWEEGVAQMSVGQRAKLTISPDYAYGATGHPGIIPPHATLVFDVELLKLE", "test": "cell-based or functional assay", "data": [{"binder": "B1", "values": [{"measurement": "fold decrease in relative luminescence of the in vitro translated double fusion FRB-luc2-FKBP with 0.2 uM rapamycin, compared to the control reactions", "result": 20, "unit": "fold"}, {"measurement": "luminescent signal of D293 cells transfected with FRB-Luc2-FKBP under the CMV promoter, with rapamycin", "result": "≤ 2", "unit": "fold"}, {"measurement": "luminescent signal of D293 cells transfected with FRB-Luc2-FKBP under the TK promoter, with rapamycin", "result": "≤ 5", "unit": "fold"}]}]}
